Data on 2 molecules can be found in patent US10154881B2, “Methods and compositions for tissue adhesives” (ARIZONA BOARD OF REGENTS FOR AND ON BEHALF OF ARIZONA STATE …, priority 2012, dated 2018).

“And” between values parts separate entries of the source, which are not always exact repeats. Identical values can stand only once.

The data set is described as follows: Determination of transition temperature (Tt) of ELPs by absorbance at 610 nm. The data set is classed as physicochemical. As to conditions: 0.5× PBS; temperature at which absorbance at 610 nm reaches 50% of maximum. The method, then: The transition temperatures (Tt) of C8ELP and C12ELP were characterized by monitoring the absorbance at 610 nm as a function of temperature with an UV-visible spectrophotometer (Beckman DU530) in 0.5× phosphate-buffered solution (PBS). Briefly, 1 ml of C8ELP (0.5 mg/ml in 0.5×PBS) and 1 ml of C12ELP (1 mg/ml in 0.5×PBS) were prepared and placed in 1.5-ml disposable cuvettes. The temperature of CnELP (n: the number of cysteines in the ELP repeat sequence; n=8/12) was tuned by placing the CnELP-contained cuvette into a Precision 288 Digital Water Bath (Thermo Scientific) and was recalibrated by FLUKE 54 II (Type K) thermometer before absorbance measurement. The absorbance of CnELP was monitored at 610 nm with an UV-visible spectrophotometer (Beckman DU530) immediately after withdrawing the cuvette out of the water bath. The Tt is defined as the temperature at which the absorbance of CnELP solution reaches 50% of the maximum value. The temperature response of the C8ELP and C12ELP indicated Tt values of 31.3 and 30.5° C., respectively.

B1: C8ELP: Elastin-like polypeptide with 8 cysteine residues, SEQ ID NO:1, expressed in E. coli (protein)
chain: MVSACRGPGVGVPGVGVPGVGVPGVGVPGVGVPGVGVPGVGVPGVGVPGVGVPGVGVPGVGVPGVGVPGVGVPGVGVPGVGVPGVGVPGVGVPGVGVPGVGVPGVGVPGVGVPGVGVPGVGVPGVGVPGVGVPGVGVPGVGVPGVGVPGVGVPGVGVPGVGVPGVGVPGVGVPGVGVPGVGVPGVGVPGVGVPGVGVPGVGVPGVGVPGVGVPGVGVPGVGVPGCGVPGVGVPGVGVPGVGVPGVGVPGCGVPGVGVPGVGVPGVGVPGVGVPGCGVPGVGVPGVGVPGVGVPGVGVPGCGVPGVGVPGVGVPGVGVPGVGVPGCGVPGVGVPGVGVPGVGVPGVGVPGCGVPGVGVPGVGVPGVGVPGVGVPGCGVPGVGVPGVGVPGVGVPGVGVPGCGVPGVGVPGWP
modifications: elastin-like polypeptide
For B1, the “Transition temperature (Tt)” value came to 31.3 °C.

B2: C12ELP: Elastin-like polypeptide with 12 cysteine residues, SEQ ID NO:2, expressed in E. coli (protein)
chain: MVSACRGPGVGVPGVGVPGVGVPGVGVPGVGVPGVGVPGVGVPGVGVPGVGVPGVGVPGVGVPGVGVPGVGVPGVGVPGVGVPGVGVPGVGVPGVGVPGVGVPGVGVPGVGVPGVGVPGVGVPGVGVPGVGVPGVGVPGVGVPGVGVPGVGVPGVGVPGVGVPGVGVPGVGVPGVGVPGVGVPGVGVPGVGVPGVGVPGVGVPGVGVPG
modifications: elastin-like polypeptide
Regarding B2, the “Transition temperature (Tt)” value is 30.4 °C and 30.5 °C.
